Test results as given in US20220305006.

Target: recombinant sAPPα, human, amino acids 19-613 (UniProt P05067)
Sequence (P05067 19-613): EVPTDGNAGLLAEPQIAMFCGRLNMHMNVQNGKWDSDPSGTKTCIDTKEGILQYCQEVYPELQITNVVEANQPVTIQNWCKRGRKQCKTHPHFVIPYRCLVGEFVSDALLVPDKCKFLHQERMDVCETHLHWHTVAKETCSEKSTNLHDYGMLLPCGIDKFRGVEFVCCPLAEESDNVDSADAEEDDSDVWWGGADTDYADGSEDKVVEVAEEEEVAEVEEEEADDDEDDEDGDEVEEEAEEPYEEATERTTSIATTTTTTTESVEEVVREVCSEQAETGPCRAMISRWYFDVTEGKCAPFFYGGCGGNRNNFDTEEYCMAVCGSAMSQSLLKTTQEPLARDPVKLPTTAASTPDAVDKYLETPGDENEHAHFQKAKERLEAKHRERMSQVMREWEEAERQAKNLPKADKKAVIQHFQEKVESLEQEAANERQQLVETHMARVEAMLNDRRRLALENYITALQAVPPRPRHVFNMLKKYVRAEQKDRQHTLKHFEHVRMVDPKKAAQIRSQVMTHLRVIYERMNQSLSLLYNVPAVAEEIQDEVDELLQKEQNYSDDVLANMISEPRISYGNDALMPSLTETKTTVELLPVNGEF

Sequence of Recombinant Human Cathepsin D (chain, as listed by the source): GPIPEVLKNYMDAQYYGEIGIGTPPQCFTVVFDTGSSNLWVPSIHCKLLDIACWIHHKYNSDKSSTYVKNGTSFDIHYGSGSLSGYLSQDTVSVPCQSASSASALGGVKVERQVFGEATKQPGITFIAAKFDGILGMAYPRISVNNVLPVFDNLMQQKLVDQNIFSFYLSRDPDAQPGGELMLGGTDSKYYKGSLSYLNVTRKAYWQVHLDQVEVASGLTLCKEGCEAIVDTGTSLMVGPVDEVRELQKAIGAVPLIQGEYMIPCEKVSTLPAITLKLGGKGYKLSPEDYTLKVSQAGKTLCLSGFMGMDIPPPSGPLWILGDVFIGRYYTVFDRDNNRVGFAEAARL

In the case of Recombinant Human Cathepsin D, the “Cat D activity (fluorogenic substrate)” value is reported as “sAPPα elicited no inhibition of Cat D activity”.
